Here are results for 4 molecules from patent US20230055566A1 (DIZAL JIANGSU PHARMACEUTICAL, published 2023).

For experiment [1], the target named is T1, FGFR3b-Fc (human, UniProt P22607-2 23-377).
T1 construct: Bought from R&D Systems; the IIIb form is an isoform of it; not shown: human Fc
T1 sequence (looked up): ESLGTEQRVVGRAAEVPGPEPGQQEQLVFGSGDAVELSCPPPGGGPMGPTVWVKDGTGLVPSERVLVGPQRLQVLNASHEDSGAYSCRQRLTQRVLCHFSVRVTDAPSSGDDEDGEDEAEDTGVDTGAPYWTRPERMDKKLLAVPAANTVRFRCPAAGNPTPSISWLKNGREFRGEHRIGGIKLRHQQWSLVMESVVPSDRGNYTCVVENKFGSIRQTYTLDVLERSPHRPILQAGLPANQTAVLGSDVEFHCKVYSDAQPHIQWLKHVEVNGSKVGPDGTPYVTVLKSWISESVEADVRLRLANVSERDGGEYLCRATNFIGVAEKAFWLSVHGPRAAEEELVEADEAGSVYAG
Nature of the experiment: ELISA on FGFR family Fc fusion proteins.

The target of experiment [2] is T2, FGFR4-Fc (human, UniProt P22455 22-369).
T2 construct: Bought from R&D Systems; not shown: human Fc
T2 sequence (looked up): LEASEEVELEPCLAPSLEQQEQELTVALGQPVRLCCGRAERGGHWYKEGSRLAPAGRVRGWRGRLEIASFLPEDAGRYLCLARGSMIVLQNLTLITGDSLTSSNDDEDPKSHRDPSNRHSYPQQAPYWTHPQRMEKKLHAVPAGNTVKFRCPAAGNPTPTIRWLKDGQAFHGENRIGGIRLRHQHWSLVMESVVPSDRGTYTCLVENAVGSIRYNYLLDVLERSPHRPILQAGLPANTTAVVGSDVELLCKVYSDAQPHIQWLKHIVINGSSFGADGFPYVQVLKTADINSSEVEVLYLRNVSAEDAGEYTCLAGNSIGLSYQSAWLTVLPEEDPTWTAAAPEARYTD
Nature of the experiment: ELISA on FGFR family Fc fusion proteins. (In an ELISA, binding on a coated surface is turned into a signal by an enzyme label.)

The target of experiment [3] is T3, recombinant human FGFR1b-Fc (human, UniProt P11362-19 22-376).
T3 construct: Bought from R&D Systems; also called hFGFR1b-Fc; not shown: human Fc
T3 sequence (looked up): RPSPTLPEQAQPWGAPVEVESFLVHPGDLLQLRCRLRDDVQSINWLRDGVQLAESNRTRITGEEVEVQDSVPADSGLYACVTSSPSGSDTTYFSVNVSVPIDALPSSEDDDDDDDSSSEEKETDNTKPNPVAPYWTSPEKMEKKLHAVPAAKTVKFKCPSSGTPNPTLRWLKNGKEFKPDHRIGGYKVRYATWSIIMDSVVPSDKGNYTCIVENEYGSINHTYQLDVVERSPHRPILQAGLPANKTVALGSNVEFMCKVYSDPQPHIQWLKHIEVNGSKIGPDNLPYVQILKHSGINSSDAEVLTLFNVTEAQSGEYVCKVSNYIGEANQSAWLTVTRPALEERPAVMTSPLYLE
Nature of the experiment: SPR (Biacore), hFGFR1b-Fc immobilized on CM5 chip, antibody injected at 0-200 nM. As to the method: (§1) The binding of antibodies to human FGFR2b or human FGFR1b antigen was determined by surface plasmon resonance (Biacore). Briefly, CM5 sensor chip (GE Healthcare Life Sciences) was firstly activated by a 4 min injection of 1:1 freshly mixture of 50 mM N-hydroxysuccinamide (NHS): 200 mM […]. Then hFGFR2b-Fc or hFGFR1b-Fc was immobilized to activated CM5 sensor chip using Amine Coupling Kit (GE Healthcare Life Sciences) and 1M ethanolamine as the blocking reagent. About 20-30 response units (RU, 1 RU represents the binding of 1 pg of protein per square mm) of antigen protein were captured.
(§2) The association constant, dissociation constant were calculated with Biacore T200 evaluation software (version 1.0). […] In addition, Ab 21c is distinguished from the antibody FPA144 in terms of FGFR1b binding.
(In general: Surface plasmon resonance follows binding to a sensor surface in real time, without labels.)

The target in experiment [4] is T3, recombinant human FGFR1b-Fc. Nature of the experiment: SPR (Biacore T200), hFGFR1b-Fc amine-coupled on CM5 chip, antibody as analyte. As to the method:
as §1, §2

The target in experiment [5] is T4, recombinant rat/mouse FGFR2b-Fc (rat).
T4 construct: also called rat FGFR2b fused with murine Fc
Nature of the experiment: ELISA, plate coated with rat/mouse FGFR2b-Fc, anti-human IgG HRP. As to the method: (§3) The cross-species binding of Ab 21c to recombinant cyno, rat/mouse, and human FGFR2b-Fc fusion proteins was conducted with ELISA. In brief, 96-well ELISA plate were coated with about 100 μl/well 0.1 μg/ml recombinant human FGFR2b-Fc, recombinant rat/mouse FGFR2b-Fc, or recombinant cyno FGFR2b-Fc protein in PBS overnight. Then the plate was blocked with 2% BSA in PBS with 0.05% Tween20 and incubation with antibody samples for 60 min at room temperature, and then washed twice in 1×TBST (Cell Signaling Technology, #9997) and followed by incubation with anti-human lgG HRP (Horseradish peroxidase) conjugate for 60 min at a room temperature. HRP activity was detected with tetra-methylbenzidine substrate (Cell Signaling Technology, #7004) and the reaction was stopped with stop solution (Cell Signaling Technology, #7002). The plate was read at 450 nm. […] Ab 21c has the highest binding affinity to rat/mouse FGFR2b, followed by human FGFR2b, and then cyno FGFR2b.

The target in a further experiment is T5, cyno FGFR2b-Fc (Cynomolgus monkey).
T5 construct: also called recombinant cyno FGFR2b-Fc; cynomolgus FGFR2b
Nature of the experiment: ELISA, plate coated with cyno FGFR2b-Fc, anti-human IgG HRP. As to the method: as §3

Experiment [6] deals with T2, FGFR4-Fc. Nature of the experiment: ELISA, plate coated with HuFGFR4.
The target of experiment [7] is T1, FGFR3b-Fc. Nature of the experiment: ELISA, plate coated with HuFGFR3b.

Substitutions are numbered along the chain they refer to. Names may count otherwise.

B1: Ab hu21-21 (antibody, V domains shown)
VH: EVQLVQSGAEVKKPGASVKVSCKASGYTFTNYWMHWVRQAPGQGLEWMGAIYPENGDINYNQKFKGRVTLTRDTSISTAYMELSRLRSDDTAVYYCTSRGDYWGQGTTVTVSS
VL: AIQLTQSPSSLSASVGDRVTITCSASSGLSYMSWYQQKPGKAPKLLIYDTSNLASGVPSRFSGSGSGTDFTLTISSLQPEDFATYYCQQWSSYPYTFGQGTKLEIK
notes: Humanized antibody based on Ab 21
As for B1, the binding result in the experiment with FGFR3b-Fc [1] and in the experiment with FGFR4-Fc [2] was “no binding” throughout.

B2: Ab hu21-26 (antibody, human IgG1, V domains shown)
VH: B1 VH with G56R
VL: B1 VL
notes: Humanized antibody with human IgG1; The VH equals that of hu21-21 except for G56R; also called afhu21-26 (afucosylated version)
B2: the binding result in the experiment with FGFR3b-Fc [1] and with FGFR4-Fc [2] was “no binding” throughout.

B3: Ab 21c (antibody, V domains shown)
VH: EVQLHQSGTVLARPGASVKMSCKTSGYTFTNYWMHWIKQRPGQGLEWIGAIYPENGDINYNQKFKGKAKLTAVTSASTAYMDLSSLTNEDSAVYYCTSRGDYWGQGTTLTVSS
VL: QIVLTQSPAIMSASPGEKVTMTCSASSGLSYMSWYQQKPGSSPRLLIYDTSNLASGVPVRFSGSGSGTSYSLTISRMEAEDAATYYCQQWSSYPYTFGGGTKLEIK
notes: Chimeric antibody: mouse VH and VL fused to human heavy and light chain constant regions; also called chimeric Ab 21c
The term koff denotes a measure of how fast the partners let go of each other. In general, kon refers to the rate constant with which the complex forms. A word on the Kd: it is the equilibrium constant for the complex coming apart. Usually EC50 (read off the curve) stands for the concentration at which the effect is half-maximal. For the molecule B3, in experiment [3], the off-rate constant (koff) was found to be 0.000235 s⁻¹ and the on-rate (kon) was determined as 63800 M⁻¹ s⁻¹. Further, the Kd in experiment [4] was found to be 3.69 nM. Moreover, in experiment [5], the 50% effective concentration (EC50 (read off the curve)) is about 0.2 nM. The “EC50 (read off the curve)” value with cyno FGFR2b-Fc is about 0.6 nM.

B4: Ab 21 (antibody, V domains shown)
VH: B3 VH
VL: B3 VL
notes: Mouse monoclonal antibody from a hybridoma; also called mouse Ab 21
As for B4, the binding result with FGFR4-Fc [6] and in the experiment with FGFR3b-Fc [7] was “no binding (tested: about 10^-7.3 M (about 5e-8 M))” in each case.
